Measurements as given in patent publication US20250074999A1 (PENTIXAPHARM, published 2025).
Residue numbers refer to the chain shown, from its start. Values belong to the binder of their own block, whether it stands above or below them.

Target: T1, O-glycosylated LYPD3-STP-ECD (expressed in and purified from NM-F9 cells) (human, UniProt O95274 234-303, O-glycosylated on Ser/Thr by NM-F9 cells: predominantly TF (Galβ1-3GalNAcα1-), lower amounts of Tn)
T1 construct: also called NM-F9-derived LYPD3-STP; STP-rich C-terminal part of the ECD; not shown: fusion partner for purification and detection, e.g. Twin-Strep-tag, MBL or polyhistidine tag; which one and at which end
T1 sequence: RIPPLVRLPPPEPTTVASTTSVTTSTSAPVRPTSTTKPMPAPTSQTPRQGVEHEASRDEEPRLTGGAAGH
Experiment: ELISA and flow cytometry (FIGS. 14, 15 and 16)
Experimental: Briefly, differently glycosylated and non-glycosylated protein antigens or glycans conjugated to carbohydrate-polyacrylamide conjugates (carbohydrate PAA-conjugates, GlycoNZ) were coated to 96-well plates overnight, unspecific binding was blocked and test antibody samples were added. In some assays an anti-huLYPD3 huIgG1 control monoclonal Ab was used, that was purified from CHO cell supernatant after expression of the antibody sequence derived from patent application WO 2011/070088 A1 (SEQ ID NOs: 51 and 52 of WO 2011/070088) (“aLYPD3 mAb”). This control anti-huLYPD3 antibody binds to the extracellular domain of human LYPD3 in a glycosylation-independent manner. To control protein antigen coating to the ELISA plates anti-huLYPD3 rabbit polyclonal antibody (R&D Systems, cat. no. AF5428) (“aLYPD3 pAb”) or a-MBL antibody (Novusbio) (“aMBL”) for constructs expressed as MBL fusion protein were used. Antibodies recognizing specific glycan structures were used to detect glycosylation of the coated proteins. Anti-TFa (“aTF”) antibody clone HH8 was kindly provided by Prof. Clausen, University of Copenhagen. Antibodies specifically recognizing Tn (“aTn”) were either purchased from SBH Sciences or also provided by Prof. Clausen, University of Copenhagen (clone 5F4). Afterwards, peroxidase conjugated anti-IgG secondary antibody was added, followed by 3,3′,5,5′-tetramethylbenzidine (TMB) substrate reaction. Antibody binding rates were determined by measurement absorbance at 450 nm and 620 or 630 nm as reference wavelength using a multimode microplate reader (PerkinElmer EnSpire 2300 or Tecan Spark).
Binding of aLYPD3 clones to cell lines with different glycosylation status of LYPD3 was tested. LYPD3-transfected NM-F9 (LYPD3-F9), expressing LYPD3 carrying non-sialylated O-glycans, not transfected NM-F9 (corresponding WT cells), expressing endogenous level of LYPD3, and LYPD3-transfected HEK-O-glyc KO (LYPD3-HEK-O-glyc. KO) expressing LYPD3 without O-glycans, were stained with aLYPD3 clones and detected via fluorophore-coupled anti-human-IgG secondary reagent. Expression of LYPD3 and TFa was confirmed using control aLYPD3 pAb and mAb and aTF mAb. To determine background staining, an irrelevant hIgG1 control was included. DAPI was used to discriminate live from dead cells. Cells were analyzed using a Canto II (BD) flow cytometer.

binding result: binds
B1: 21E9-222 (antibody, V domains shown)
VH: EVQLVESGGGLVQPGGSLRLSCAASGFDFSNYYYMCWVRQAPGKGLEWVSCIAAGSGGYTYYASWAKGRFTISRDNSKNTLYLQMNSLRAEDTAVYYCASSGDYKGFNLWGQGTLVTVS
VL: DIVMTQSPSSLSASVGDRVTITCQASQSISSYLAWYQQKPGKPPKLLIYGASNLASGVPSRFSGSGSGTDFTLTISSLQPEDVATYYCQGYYYSFSDIFAFGGGTKVEI
notes: Humanized 21E9; also called humanized aLYPD3 antibody 21E9-222

binding result: binds
B2: 21E9-227 (antibody, V domains shown)
VH: B1 VH with E1Q, Q13K, V38I, S77A, T80S
VL: B1 VL with D1A, V3R, M4I, T5A, V15T, P43A, S77C, P80S, V83F, G103Q
notes: Humanized 21E9; also called humanized aLYPD3 antibody 21E9-227

binding result: binds
B3: 21E9-228 (antibody, V domains shown)
VH: B1 VH with E1Q, V5Q, S50L, V95I
VL: B1 VL with D1A, V3R, M4I, T5A, V15T, P43A, S77C, P80S, V83F, G103Q
notes: Humanized 21E9; also called humanized aLYPD3 antibody 21E9-228

binding result: binds
B4: 21E9-219 (antibody, V domains shown)
VH: B1 VH with E1L, Q13K, V38I, S77A, T80S, Y96W
VL: B1 VL
notes: Humanized 21E9; also called humanized aLYPD3 antibody 21E9-219

binding result: binds
B5: 21E9-220 (antibody, V domains shown)
VH: B1 VH with E1Q, V5Q, S50L, V95I
VL: B1 VL
notes: Humanized 21E9; also called humanized aLYPD3 antibody 21E9-220

binding result: binds
B6: 21E9-221 (antibody, V domains shown)
VH: B1 VH with L115M
VL: B1 VL
notes: Humanized 21E9; also called humanized aLYPD3 antibody 21E9-221

binding result: binds
B7: 21E9-226 (antibody, V domains shown)
VH: B1 VH
VL: B1 VL with D1E, V107L
notes: Humanized 21E9; also called humanized aLYPD3 antibody 21E9-226

binding result: binds
B8: 21E9-224 (antibody, V domains shown)
VH: B1 VH
VL: B1 VL with D1E, P43A, V83F
notes: Humanized 21E9; also called humanized aLYPD3 antibody 21E9-224

binding result: binds
B9: 21E9-225 (antibody, V domains shown)
VH: B1 VH
VL: B1 VL with D1A, V3R, M4I, T5A, V15T, P43A, S77C, P80S, V83F, G103Q
notes: Humanized 21E9; also called humanized aLYPD3 antibody 21E9-225
